# Measured values published in paper PMC5469345, “High Sensitivity Determination of TNF-α for Early Diagnosis of Neonatal Infections with a Novel and Reusable Electrochemical Sensor”.
# B1: TNF-α aptamer (T2) (ssDNA)
# DNA: TTTTTTTTTTTTTTTTGGTGGATGGCGCAGTCGGCGACAA
# Target: TNF-α (UniProt P01375 77-233)
# Experiment: electrochemical sensor (CV/EIS/DPV), displacement of aptamer from capture probe; aptamer pre-hybridized to capture probe T1 on gold electrode; 0.01 M PBS, 37 °C; TNF-α incubation in 0.01 M PBS pH 7.4, 37 °C, 2 h (1 h optimal); binding buffer listed as 10 mM Tris-HCl pH 7.4, 10 mM KCl, 10 mM MgCl2; DPV in 10x PBS
# Details: protein: commercial; chain copies: 3; single strand; on the sensor pre-hybridized to thiolated capture probe T1 (S1), from which TNF-α displaces it
# Chain of TNF-α (P01375 77-233): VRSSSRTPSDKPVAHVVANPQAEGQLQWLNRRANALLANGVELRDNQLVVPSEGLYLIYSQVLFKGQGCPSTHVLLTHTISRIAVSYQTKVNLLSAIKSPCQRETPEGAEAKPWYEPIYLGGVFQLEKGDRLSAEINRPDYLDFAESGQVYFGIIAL
binder,measurement,value
B1,binding result,binds
